Data on three molecules can be found in US20240002531A1 (ONO PHARMACEUTICAL, published 2024).

What all share (assay): peptide ELISA, OD 655 nm
In general terms: An ELISA detects its analyte on a solid surface through an enzyme-linked reagent.

In assay [1] the target is T1, L608A peptide (HER2 603-622 with L608A) (human).
T1 peptide: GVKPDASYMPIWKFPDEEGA

The target in assay [2] is T2, D618A peptide (HER2 603-622 with D618A) (human).
T2 peptide: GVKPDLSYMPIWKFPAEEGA

Assay [3] concerns the target T3, P612A peptide (HER2 603-622 with P612A) (human).
T3 peptide: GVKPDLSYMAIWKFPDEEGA

Assay [4] addresses T4, F616A peptide (HER2 603-622 with F616A) (human).
T4 peptide: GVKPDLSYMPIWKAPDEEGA

Assay [5] has as its target T5, G621A peptide (HER2 603-622 with G621A) (human).
T5 peptide: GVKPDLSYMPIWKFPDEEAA

Assay [6] addresses T6, P606A peptide (HER2 603-622 with P606A) (human).
T6 peptide: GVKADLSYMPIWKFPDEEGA

In assay [7] the target is T7, G603A peptide (HER2 603-622 with G603A) (human).
T7 peptide: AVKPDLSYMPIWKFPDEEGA

Assay [8] has as its target T8, W614A peptide (HER2 603-622 with W614A) (human).
T8 peptide: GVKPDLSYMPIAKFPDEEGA

Assay [9] addresses T9, V604A peptide (HER2 603-622 with V604A) (human).
T9 peptide: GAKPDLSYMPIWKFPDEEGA

Assay [10] has as its target T10, I613A peptide (HER2 603-622 with I613A) (human).
T10 construct: also called 1613A
T10 peptide: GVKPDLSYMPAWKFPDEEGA

For assay [11], the target named is T11, E619A peptide (HER2 603-622 with E619A) (human).
T11 peptide: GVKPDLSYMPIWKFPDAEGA

The target in assay [12] is T12, S609A peptide (HER2 603-622 with S609A) (human).
T12 peptide: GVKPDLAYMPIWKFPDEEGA

For assay [13], the target named is T13, HER2_604-622C peptide (NH2-VKPDLSYMPIWKFPDEEGAC-COOH) (human).
T13 construct: KLH was added for immunisation, the peptide itself was coated in the screening ELISA
T13 peptide: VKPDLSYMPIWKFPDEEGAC

The target in assay [14] is T14, K615A peptide (HER2 603-622 with K615A) (human).
T14 peptide: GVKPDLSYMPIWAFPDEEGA

Assay [15] addresses T15, Y610A peptide (HER2 603-622 with Y610A) (human).
T15 peptide: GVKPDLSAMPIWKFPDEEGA

For assay [16], the target named is T16, P617A peptide (HER2 603-622 with P617A) (human).
T16 peptide: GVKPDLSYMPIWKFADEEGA

Assay [17] has as its target T17, E620A peptide (HER2 603-622 with E620A) (human).
T17 peptide: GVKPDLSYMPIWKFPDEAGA

The target of assay [18] is T18, D607A peptide (HER2 603-622 with D607A) (human).
T18 peptide: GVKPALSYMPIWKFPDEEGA

The target in assay [19] is T19, K605A peptide (HER2 603-622 with K605A) (human).
T19 peptide: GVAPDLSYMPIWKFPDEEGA

In assay [20] the target is T20, HER2 peptide p603-622 (amino acids 603 to 622 of human HER2) (human).
T20 construct: Synthetic peptide; also called wild-type HER2 peptide
T20 peptide: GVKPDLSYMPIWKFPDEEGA

In assay [21] the target is T21, M611A peptide (HER2 603-622 with M611A) (human).
T21 peptide: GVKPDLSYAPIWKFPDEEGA

In assay [22] the target is T1, L608A peptide (HER2 603-622 with L608A).
The target of assay [23] is T2, D618A peptide (HER2 603-622 with D618A).
The target in assay [24] is T3, P612A peptide (HER2 603-622 with P612A).
Assay [25] addresses T4, F616A peptide (HER2 603-622 with F616A).
Assay [26] addresses T5, G621A peptide (HER2 603-622 with G621A).
For assay [27], the target named is T6, P606A peptide (HER2 603-622 with P606A).
The target of assay [28] is T7, G603A peptide (HER2 603-622 with G603A).
The target of assay [29] is T8, W614A peptide (HER2 603-622 with W614A).
In assay [30] the target is T9, V604A peptide (HER2 603-622 with V604A).
Assay [31] addresses T10, I613A peptide (HER2 603-622 with I613A).
In assay [32] the target is T11, E619A peptide (HER2 603-622 with E619A).
The target of assay [33] is T12, S609A peptide (HER2 603-622 with S609A).
The target of assay [34] is T13, HER2_604-622C peptide ….
In assay [35] the target is T14, K615A peptide (HER2 603-622 with K615A).
Assay [36] deals with T15, Y610A peptide (HER2 603-622 with Y610A).
Assay [37] addresses T16, P617A peptide (HER2 603-622 with P617A).
In assay [38] the target is T17, E620A peptide (HER2 603-622 with E620A).
Assay [39] deals with T18, D607A peptide (HER2 603-622 with D607A).
For assay [40], the target named is T19, K605A peptide (HER2 603-622 with K605A).
Assay [41] has as its target T20, HER2 peptide p603-622 (amino acids 603 …).
For assay [42], the target named is T21, M611A peptide (HER2 603-622 with M611A).

Read-outs that look alike come from different tables or passages of the source.

B1: H2Mab-295 antibody (antibody, mouse IgG1, kappa, V domains shown)
VH: EVQLQQSGPELVKPGASRKISCKASGYSFTGYTMNWVKKSHGKNLEWIGLINPYNGGTRYNQKFKGKATLTVDKSSSTAYMELLSLTSEDSAVYYCVKEPSDYWGQGTTLTVSS
VL: DVVMTQTPLSLPVSLGDQASISCRSSQSLVHSNGNTYLHWYLQKPGQSPKLLIYKVSKRFSGVPDRFSGCGSGTDFTLKISRLEAEDLGVYFCSQSSHVPPTFGGGTKLEIKR
In the case of B1, the binding result in assay [1], in assay [2], in assay [3], in [4], in [5] and in [6] was “binds” each time. Besides, the binding result in [7], in assay [8], in [9], in assay [10], in assay [11] and in assay [12] was “binds” in each case. The binding result in assay [13], in [14], in assay [15], in assay [16], in assay [17] and in assay [18] was “binds” throughout. Moreover, the binding result in assay [19], in assay [20] and in assay [21] was “binds” in each case.

B2: H2Mab-280 antibody (antibody, mouse IgG1, kappa, V domains shown)
VH: DVKLVESGGGLVKPGGSLKLSCAASGFTFSSYSMSWVRQTPEKRLEWVAIISSGGSYTFYPDSVKGRFTISRDNAKNTLYLQMSSLKSEDTAMYHCTREAGDYWGQGTTLTVSS
VL: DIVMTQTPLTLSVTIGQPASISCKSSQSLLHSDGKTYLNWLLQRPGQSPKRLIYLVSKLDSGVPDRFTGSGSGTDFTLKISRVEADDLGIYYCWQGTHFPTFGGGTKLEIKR
As for B2, the binding result in assay [22], in [23], in assay [24], in assay [25], in [26] and in assay [27] was “binds” each time. The binding result in assay [28] is “binds”; in [29], “no binding (tested: 10 ug/ml)”; in assay [30], “binds”; in [31], “binds”; in [32] it was “binds”; in [33] it was “binds”. Further, the binding result in assay [34], in [35], in [36], in assay [37], in [38] and in [39] was “binds” throughout. Moreover, the binding result in assay [40], in assay [41] and in assay [42] was “binds” in each case.

B3: H2Mab-282 antibody (antibody, mouse IgG2a, kappa, V domains shown)
VH: QVQLQQSGAELSRPGASVKMSCKAAGYTFSSYMIHWVKQRPGQGLEWIGYINPSSGYSNYNQKFKDKATLTADKSSSTAYMQLSSLTSEDSAVYYCAFYDYDGDWGQGTLVTVSA
VL: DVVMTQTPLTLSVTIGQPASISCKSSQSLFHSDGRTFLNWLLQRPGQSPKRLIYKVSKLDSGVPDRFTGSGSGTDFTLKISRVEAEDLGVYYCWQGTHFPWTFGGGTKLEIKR
Take B3: the binding result was “binds” in assay [22]; “binds” in assay [23]; “binds” in [24]; “no binding (tested: 10 ug/ml)” in [25]; “binds” in assay [26]; “binds” in assay [27]. Also, the binding result in [28], in assay [29], in assay [30], in [31], in [32] and in assay [33] was “binds” each time. Besides, the binding result in assay [34], in [35], in assay [36], in assay [37], in [38] and in assay [39] was “binds” throughout. Also, the binding result in [40], in assay [41] and in assay [42] was “binds” in each case.
